Laboratory results as given in patent US10172850B2, “Substituted diketopiperazine analogs for use as drug delivery agents” (MannKind Corporation, priority 2008, dated 2019).

Experiments:
[1] = rat, in vivo
Method: (§4) Blood samples were taken on the day of dosing for each rat per group at pre-dose (0 minutes), 5, 20, 40, 60, and 120 minutes post dose. […] Body weights ranged from 214-250 grams.

[2] = Mean serum insulin concentrations in rats administered DKP and insulin powders (Example 5, FIG. 8); settings: 20 minutes post dose; 1.4 mg insulin in saline; pulmonary liquid instillation (INS)
Method: as §4

[3] = Mean glucose levels in rats administered various substituted DKP/insulin powders (Example 6, FIG. 9); format: in vivo, female Sprague Dawley rats; settings: insulin 0.5 U/kg subcutaneous, pre-dose 132 mg/dL
Text: (§1) For this study, substituted diketopiperazine/insulin powders were made each containing either (E)-3-(4-(3,6-dioxopiperazin-2-yl)butylcarbamoyl)-acrylic acid (Compound 3) and insulin; or (E)-3-(3-(3,6-dioxopiperazin-2-yl)propylcarbamoyl)-acrylic acid (Compound 4) and insulin; or (E)-3-(4-(5-isopropyl-(3,6-dioxopiperazin-2-yl)butylcarbamoyl)-acrylic acid (Compound 5) and insulin, and administered to each of 3 female Sprague Dawley rats per group via pulmonary insufflation.
(§2) The rats were divided into 5 groups as follows. Group 1 rats received a formulation containing Compound 3 with an 11.4% insulin content (Formulation 3) via pulmonary insufflation. Group 2 rats were administered a formulation Compound 3 with a 25% insulin content (Formulation 3) by pulmonary insufflation. Group 3 rats received a formulation of Compound 4 with an 11.4% insulin content (Formulation 4) by pulmonary insufflation. Group 4 rats received a formulation of Compound 5 with 11.4% insulin content by pulmonary insufflation. Group 5 rats received insulin (0.5 U/kg) via subcutaneous administration.
(§3) Blood samples were taken on the day of dosing for each rat per group before (0 minutes) and 10, 20, 40, and 60 minutes after administration of the formulations, except for the insulin control group (group 5), for which an additional sample was collected at 120 minutes after dosing. At each time point, approximately 10 μL of whole blood was collected from the lateral tail vein of rats in each group and analyzed for measurements of insulin and glucose concentrations.

[4] = Mean serum insulin levels and relative bioavailability of substituted DKP/insulin powders (Example 6, FIG. 10, Table 2)
Text: as §1, §2, §3

[5] = serum insulin, insulin 0.5 U/kg subcutaneous

Compound: O=C(O)/C=C/C(=O)NCCCC1NC(=O)C(CCCNC(=O)/C=C/C(=O)O)NC1=O (stereo not drawn) [Compound 2, (E)-3,6-bis[(N-carboxy-2-propenyl)-amidopropyl]-2,5-diketopiperazine]
- insulin concentration [1]: 505 μU/mL

Compound: insulin
- serum insulin concentration [2]: 6703 μU/mL
- blood glucose level ([3]; 40 minutes post dose): 43 mg/dL
- blood glucose level ([3]; 1 hour post dose): 42 mg/dL
- blood glucose level ([3]; 2 hours post dose): 34 mg/dL
- serum insulin concentration ([4]; 20 minutes post dose, insulin by subcutaneous injection): 9360 μU/mL
- BIOAVAILABILITY ([4]; insulin 0.5 U/kg subcutaneous (reference)): 100%
- Tmax [4, 5]: 20 min
- T½ [4, 5]: 9.18 min
